Data as given in patent publication US20230242902A1, “A HIGHLY ERROR-PRONE […] R[…] FOR TARGETED CONTINUOUS EVOLUTION IN VIVO” (The Regents of the University of California, priority 2017, published 2023).
Where a chain is given by its changes, count along the chain named. Names and notes keep the numbering of the source.

B1: S370Q: TP-DNAP2 variant (protein, listed as Kluyveromyces lactis)
chain: MNDELAFLNSQIDDYSDDIEFLRTEVFRINRYSKSIYSLMKNSSKEAIKETIEFNKYGQEIHSKIKEKEISLIEAIKLMEKKYKYLRSLNKTKDKSKKKKIHTKDIETLKTIYKTKADFDIRNFKNAETFTYENYSLLIPSEKELIDLIPEIEEDYSYYFYVSLTITGPTIFGGVTRKVPIIDTYGDINKDFYNKIKENITKVLDRVPFYEEKESEIICKKVLITLTVNKWESIDKWYKNVKSKSKKFKDFTLFLASDTSKNCVQQCVEYLGGKWNTNYSLEKMIPQQKIVTYIPLLMDIQYVQSMEDLISDFDEPNTDCKNIARLLKWNGHMGVITKIDKDVKINRIQRKRIIDVENKEVKEVFFDIEQFSDETKHQIPYLICWSYLGELYYRTGKNCIKEFVEEILSYNVDIILYAWYGSGYDYQHVLPYMKSKCIKDKYIIKNNMITYGELYYENAIIYLKDPYLFILTSLDKASKAFNVINKGEFPHSIIHSWEDLNKILPNWVKIQKRMIEYKDDNKLNIYYKNIEIFENDRNYNTILENAIEYCKVDVLAMEKVWIKFKKLLEKNLNITVSVKTFTLSQLSMKIMESKLPKYVKLYVPTLEEYSKIRNAIYGGRVISKNGIYEENIVYADVVSLYPSAMKLLKHSYGKPKLVDYIDFEKHGIYRVTLLNKHDQEPKNYLNFVPRRINRKLTWEWFKIHEGWYHTYDLIIAKSEGFDIYCHEGFEYPEKDYIFNDFIDTLYSMKETHTACSCEEQPCPIRMVAKIALNGGGYGKFVQKPIDKEIYIVKRDVVAGECDKLQENENGEICIGKRLVKRPLFYNLDSENYDKMIIEKEDEPIYSTQCGISILSASRYRLYKLCKQFENIDIIYSDTDSIFVKQKSVDWELFKSKCGSELGQLDSTIDDTKNAIISKMYIGGAKMYAFEYLNNKNKLITKLHCKGVPNYMLSLNQFKYLMESPDNTIAYKFEIIRRKLVNVITKDLIKDIKQT
B2: Y424Q: TP-DNAP2 variant (protein, listed as Kluyveromyces lactis)
chain: B1 chain with Q370S, Y424Q

Experiments:
[1] = system: p1-encoded leu2*; assay: p1 leu2* fluctuation tests in AR-Y304 (p1 mutation rate reporter strain, mutual orthogonality); type: cell-based, S. cerevisiae; conditions: AR-Y304, noncognate polymerase in trans
Excerpt: Strains for testing mutual orthogonality were generated by transforming a panel of CEN6/ARS4 vectors encoding TP-DNAP1 or TP-DNAP2 variants into two base strains, AR-Y304 and GA-Y021. AR-Y304 (Ravikumar et al., 2014, Nature Chemical Biology, 10:175-177) contains recombinant p1 encoding mKate2, URA3 and leu2* without disturbing the native TP-DNAP1 ORF. Similarly, GA-Y021 encodes recombinant p2 that replaces ORF1 with mKate2, URA3 and leu2* without disturbing the native TP-DNAP2 ORF.
To precisely measure p1 and p2 per-base substitution mutation rates, several modifications were made to the small-scale protocol. First, 36 replicates were performed for reconfirmation of candidate TP-DNAP2 mutators, and 48 replicates for genomic and mutual orthogonality experiments. Titers were also determined for each strain after spot plating by pooling the residual volume from 4 replicates and plating dilutions on YPD. The expected number of LEU2 functional mutants (m) was determined by the Ma-Sandri-Sarkar maximum likelihood estimator (as calculated by the FALCOR tool and corrected for partial plating (Foster, 2006, Methods Enzymol, 409:195-213; Sarkar et al., 1992, Genetica, 85:173-179; Hall et al., 2009, Bioinformatics, 25:1564-1565). The mean mKate2 fluorescence was determined from 50,000 event counts on Attune™ NxT Flow Cytometer and converted to p2 copy number by using a calibration curve. To determine per-base substitution rates, the corrected m was normalized to the average cell titer, the p2 copy number, and the target size for functional leu2* reversion (2.33 bp). 95% confidence intervals were similarly scaled.
To test whether the replication mechanisms of p1 and p2 are mutually orthogonal in vivo, p1 and p2 mutation rates were measured in the presence of a panel of TP-DNAP1 and TP-DNAP2 variants with varying mutation rates. Changes in p1 or p2 mutation rate induced by TP-DNAP variants would therefore signal a degree of cross-replication between TP-DNAP1/p1 and TP-DNAP2/p2, if any. A panel of six polymerases was introduced on CEN6/ARS4 vectors into two separate base strains, AR-Y304 (p1 mutation rate reporter strain) and GA-Y021 (p2 mutation rate reporter strain), encoding mKate2, URA3, and leu2* on either p1 or p2, respectively. Included in this panel were TP-DNAP1^WT and two error-prone TP-DNAP1 variants found in previous screens: TP-DNAP1^1777K, L900S and TP-DNAP1^L477V, L640Y, I777K, W814N. Also included were TP-DNAP2^WT and the error-prone TP-DNAP2^S370Q and TP-DNAP2^Y424Q variants found in this work. In AR-Y304 and GA-Y021, both p1 and p2 still encode their native wt TP-DNAP's. Any contribution to replication by a third TP-DNAP encoded in trans is monitored by detecting changes in linear plasmid mutation rate. Importantly, these experiments afford each DNAP an opportunity to replicate its native plasmid and lose its attached TP, becoming “spent” and perhaps more likely to replicate its noncognate linear plasmid through DNAP exchange (Klassen and Meinhardt, 2007, Linear Protein-Primed Replicating Plasmids in Eukaryotic Microbes, in Microbial Linear Plasmids, pp 1 87-226. Springer, Berlin, Heidelberg). The presence of TP-DNAP1^WT or TP-DNAP2^WT in trans had no effect on their noncognate linear plasmids' mutation rate. […] Likewise, p1 mutation rate was unaltered in the presence of mutagenic TP-DNAP2^S370Q and TP-DNAP2^Y424Q, which increased p2 mutation rate by 29- and 16-fold, respectively (FIG. 9). Thus, TP-DNAP1 replicates p1 with at least 870-fold specificity over p2, while TP-DNAP2 targets p2 with at least 29-fold specificity over p1. The level of mutual orthogonality measured here is limited by the error-rates of DNAPs used, especially that of TP-DNAP2 variants.

[2] = system: p2-delORF2-URA3; assay: Complementation of native TP-DNAP2 deletion (p2-delORF2-URA3 replication in trans); type: cell-based, S. cerevisiae
Excerpt: First, TP-DNAP2, which is ORF2 of p2, was deleted by homologous recombination of a synthetic cassette encoding URA3. Since p2 is a multi-copy plasmid, the resulting strain (GA-Y069) harbored a mixture of the parental wt p2 and the recombinant p2 with ORF2 deleted (p2-delORF2-URA3), along with unaltered p1. In this strain, both the wt p2 and recombinant p2-delORF2-URA3 plasmids rely on TP-DNAP2 encoded on the parental wt p2 plasmid for replication. Thus, loss of wt p2 should disable replication of p2-delORF2-URA3. […] Next, the same experiment was repeated in the presence of a codon-optimized TP-DNAP2 expressed in trans from a standard yeast CEN6/ARS4 nuclear plasmid (pGA55-reTP-DNAP2). […] Therefore, p2-derived plasmids can be replicated by TP-DNAP2 encoded on a standard nuclear plasmid, simplifying the characterization of p2 replication by error-prone TP-DNAP2 variants.

Molecule	change in p1 mutation rate by TP-DNAP2 [1]	ability to complement deletion of native TP-DNAP2 and sustain p2-delORF2-URA3 replication [2]
B1	unaltered	not active enough to fully complement a deletion of the native TP-DNAP2
B2	unaltered	not active enough to fully complement a deletion of the native TP-DNAP2
